Source: the supplement of paper PMC10567573

B1: INTS3 (parent)
chain: FHPIKETVVEEPVDITPYLDQLDE

Variants of: B1
Assay: protein stability index of a GFP-peptide fusion (GPS, HEK-293T) (PSI 1-6); higher = more stable
Settings: c terminus: a fixed tail appended
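Also: lentivirally expressed fusions sorted by FACS into six bins by GFP to DsRed ratio, PSI derived from sequencing read proportions per bin multiplied by bin number.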

Variant | protein stability index
FHPIKETVVEPPVDITPYLDQLDE [E11P] | 2.95
FHPIKETVVELPVDITPYLDQLDE [E11L] | 2.76
FHPIKETVVEYPVDITPYLDQLDE [E11Y] | 2.51
FHPIKETVVEQPVDITPYLDQLDE [E11Q] | 3.53
FHPIKETVVEKPVDITPYLDQLDE [E11K] | 3.02
FHPIKETVVEHPVDITPYLDQLDE [E11H] | 2.87
FHPIKETVVECPVDITPYLDQLDE [E11C] | 2.78
FHPIKETVVESPVDITPYLDQLDE [E11S] | 2.81
FHPIKETVVEMPVDITPYLDQLDE [E11M] | 2.93
FHPIKETVVEDPVDITPYLDQLDE [E11D] | 3.15
FHPIKETVVEVPVDITPYLDQLDE [E11V] | 2.79
FHPIKETVVEFPVDITPYLDQLDE [E11F] | 1.92
FHPIKETVVEGPVDITPYLDQLDE [E11G] | 3.19
FHPIKETVVEIPVDITPYLDQLDE [E11I] | 1.77
FHPIKETVVEAPVDITPYLDQLDE [E11A] | 2.73
FHPIKETVVENPVDITPYLDQLDE [E11N] | 2.98
FHPIKETVVEWPVDITPYLDQLDE [E11W] | 2.11
FHPIKETVVETPVDITPYLDQLDE [E11T] | 2.54
FHPIKETVVERPVDITPYLDQLDE [E11R] | 2.49
FHPIKETVVEEPYDITPYLDQLDE [V13Y] | 3.2
FHPIKETVVEEPWDITPYLDQLDE [V13W] | 2.92
FHPIKETVVEEPLDITPYLDQLDE [V13L] | 3.22
FHPIKETVVEEPSDITPYLDQLDE [V13S] | 3.67
FHPIKETVVEEPFDITPYLDQLDE [V13F] | 3.05

Variant | protein stability index
FHPIKETVVEEPDDITPYLDQLDE [V13D] | 3.83
FHPIKETVVEEPHDITPYLDQLDE [V13H] | 3.32
FHPIKETVVEEPCDITPYLDQLDE [V13C] | 3.08
FHPIKETVVEEPGDITPYLDQLDE [V13G] | 3.27
FHPIKETVVEEPPDITPYLDQLDE [V13P] | 2.43
FHPIKETVVEEPADITPYLDQLDE [V13A] | 3.61
FHPIKETVVEEPNDITPYLDQLDE [V13N] | 3.42
FHPIKETVVEEPMDITPYLDQLDE [V13M] | 3
FHPIKETVVEEPIDITPYLDQLDE [V13I] | 3.4
FHPIKETVVEEPQDITPYLDQLDE [V13Q] | 3.25
FHPIKETVVEEPRDITPYLDQLDE [V13R] | 2.58
FHPIKETVVEEPEDITPYLDQLDE [V13E] | 3.34
FHPIKETVVEEPKDITPYLDQLDE [V13K] | 3.05
FHPIKETVVEEPTDITPYLDQLDE [V13T] | 3.8
FHPIKETVVEEPVHITPYLDQLDE [D14H] | 3.11
FHPIKETVVEEPVVITPYLDQLDE [D14V] | 2.73
FHPIKETVVEEPVLITPYLDQLDE [D14L] | 2.91
FHPIKETVVEEPVYITPYLDQLDE [D14Y] | 2.11
FHPIKETVVEEPVEITPYLDQLDE [D14E] | 3.18
FHPIKETVVEEPVAITPYLDQLDE [D14A] | 3.05
FHPIKETVVEEPVFITPYLDQLDE [D14F] | 1.93
FHPIKETVVEEPVPITPYLDQLDE [D14P] | 3.09
FHPIKETVVEEPVGITPYLDQLDE [D14G] | 2.42
FHPIKETVVEEPVMITPYLDQLDE [D14M] | 2.14

Variant | protein stability index
FHPIKETVVEEPVKITPYLDQLDE [D14K] | 3.13
FHPIKETVVEEPVSITPYLDQLDE [D14S] | 2.75
FHPIKETVVEEPVWITPYLDQLDE [D14W] | 1.63
FHPIKETVVEEPVIITPYLDQLDE [D14I] | 2.9
FHPIKETVVEEPVQITPYLDQLDE [D14Q] | 2.91
FHPIKETVVEEPVTITPYLDQLDE [D14T] | 3.18
FHPIKETVVEEPVNITPYLDQLDE [D14N] | 3.04
FHPIKETVVEEPVRITPYLDQLDE [D14R] | 2.62
FHPIKETVVEEPVCITPYLDQLDE [D14C] | 3.12
FHPIKETVVMEPVDITPYLDQLDE [E10M] | 2.16
FHPIKETVVSEPVDITPYLDQLDE [E10S] | 2.54
FHPIKETVVHEPVDITPYLDQLDE [E10H] | 2.56
FHPIKETVVPEPVDITPYLDQLDE [E10P] | 2.98
FHPIKETVVQEPVDITPYLDQLDE [E10Q] | 2.99
FHPIKETVVVEPVDITPYLDQLDE [E10V] | 2.12
FHPIKETVVLEPVDITPYLDQLDE [E10L] | 2.69
FHPIKETVVIEPVDITPYLDQLDE [E10I] | 2.08
FHPIKETVVREPVDITPYLDQLDE [E10R] | 2.1
FHPIKETVVYEPVDITPYLDQLDE [E10Y] | 1.8
FHPIKETVVKEPVDITPYLDQLDE [E10K] | 1.84
FHPIKETVVNEPVDITPYLDQLDE [E10N] | 2.59
FHPIKETVVGEPVDITPYLDQLDE [E10G] | 2.8
FHPIKETVVTEPVDITPYLDQLDE [E10T] | 2.56
FHPIKETVVEEPVDCTPYLDQLDE [I15C] | 3.49

Variant | protein stability index
FHPIKETVVEEPVDDTPYLDQLDE [I15D] | 4.18
FHPIKETVVEEPVDATPYLDQLDE [I15A] | 3.43
FHPIKETVVEEPVDETPYLDQLDE [I15E] | 4.59
FHPIKETVVEEDVDITPYLDQLDE [P12D] | 3.52
FHPIKETVVEEIVDITPYLDQLDE [P12I] | 2.93
FHPIKETVVEEYVDITPYLDQLDE [P12Y] | 2.81
FHPIKETVVEECVDITPYLDQLDE [P12C] | 3.03
FHPIKETVVEERVDITPYLDQLDE [P12R] | 3.01
FHPIKETVVEEFVDITPYLDQLDE [P12F] | 3.65
FHPIKETVVEEVVDITPYLDQLDE [P12V] | 3.06
FHPIKETVVEEMVDITPYLDQLDE [P12M] | 2.65
FHPIKETVVEEGVDITPYLDQLDE [P12G] | 3.58
FHPIKETVVEEQVDITPYLDQLDE [P12Q] | 3.52
FHPIKETVVEEEVDITPYLDQLDE [P12E] | 3.52
FHPIKETVVEEWVDITPYLDQLDE [P12W] | 2.79
FHPIKETVVEENVDITPYLDQLDE [P12N] | 3.57
FHPIKETVVEELVDITPYLDQLDE [P12L] | 3.1
FHPIKETVVEEKVDITPYLDQLDE [P12K] | 3.04
FHPIKETVVEESVDITPYLDQLDE [P12S] | 3.31
FHPIKETVVEEAVDITPYLDQLDE [P12A] | 2.99
FHPIKETVVEEHVDITPYLDQLDE [P12H] | 3.29
FHPIKETVVEETVDITPYLDQLDE [P12T] | 3.18
